Reference: the nanobody polyreactivity screen of Harvey et al. (2022)

test: yeast display, Sf9 membrane polyspecificity reagent, FACS + sequencing; frameworks hold sequencing errors
Outline: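 Galactose-induced (36–48 hours) yeast carrying a synthetic nanobody display library were exposed to 10% biotinylated, detergent-solubilized Sf9 membrane reagent at 4 °C for 1 hour. FACS followed streptavidin microbead enrichment, using low and high (top ~1%) gates for expression (anti-HA) and reagent binding (streptavidin). Colony PCR, MiSeq 2 × 250 sequencing and CDR-length filtering followed. Labels for polyreactivity reflect the gate of origin.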

Sequence	polyreactivity (PSR sort gate)
QVQLVESGVGLVQPGGSLRLIRAAYGRILRDYDMGWYSTAPRKERELVAAINWSDGSTYYADSVKGRFTISRDNAKYTVYLQMNCQKPVDTAVYYCAAEPYVFGLSSKRFWYNYWGQGTEVTVSS	low polyreactivity
QVQLVESGVGLVQSGGSLRLSCAASGFSIEPYAMGLYRQAPGKERELVAAISWSGGSTYYADSVKGRFTISRDNAKNTVYLQMNSLKPEDTAVYYCAAEWYNSAYYEYDYWGQGTQVTVST	high polyreactivity
QVQLVESGVRLVQAGGSHRLSCAASARTFYPNAMGWYRQAPGKEREFVARISDSGGSSYYADSVKGRFTISRDNAKNTVYLQMNSLKPEDTAVYYCAADYVDPRVNEYDYWGQGTQVTVST	low polyreactivity
QVQLVESGVRLVQAGGSLRLSCAASGFTFRLYAMGWYIQAPGKERELVAATTSGGSTYYADSVKGRFTISRDNAKNTVYLQMNSLKPEDTAVYYCNKLYRTSVEYDYWGQGTQVTVSS	high polyreactivity
QVQLVESGVVLVQAGGSLRLSCAASGSIFAGYVMGWYRQAPGKERELVASISSGTGTYYADSVKGRFTISRDNAKNTVYLQMNSLKPEDTAVYYCAAECYRTVQFIRSRWSYTYDYWGQGTQVTVSS	low polyreactivity
QVQLVESLGGLLHAGGSLRLSCGASGSIFGSNALGWYRQAPGKERELVAAINYSGGSTTYADSVKGRFTISRDNAKNTVYLQMTSLKPEDTAVYYCNADVLYQFDEGVWSDYWGQGTQVTVSS	low polyreactivity
QVQLVESLGGLVQAGGSLRLSCAASGFTFGAYAMGLYRPAPGKERELVATMDWRGSSTYYADSVKGRFTISRDNAKNTVYLQINCLKPVDTAVYYCAARLARGSYAYEYWGHGTQVTVSS	low polyreactivity
QVQLVESRAVLVQAGGSLRLSCAASGSIFYVYAMGWYRQAPGKERELVAAISSSSDSTYADSVKGRFTISRDNAKNTVYLQMNSLKPEDTAVYYCATAWYYGIVRGGLPYDYWGHGTQVTVSS	low polyreactivity
QVQLVESRGAIVQAGASLRLSSAASGFTFWDYAMGCYRQAPGKERELVAAISSRGTRTYYADSVKGRFTISRDNAKNTVYLQMNSLKPEDTAVYYCATASPDPDYIHNYWGQGTQVTVSS	high polyreactivity
QVQLVESRGALVQAGASLRLSCAASALTFVKNVMGWYRQAPGKERELVAAISSGGSTYADSVKGRFTISRDNAKNTVYLQMNSLKPEDTAVYYCNADFRARNYHYYPRRFKYYYWGQGTQVTVSS	high polyreactivity
QVQLVESRGALVQAGGSLRLSCAATGSSFNRYAMRWYRQAPRKERELVAAISSGRTTNYADSVKGRFTISRDNAKNTVYLQMNSLKPEDTAVYYCNRKFRYSSHTNYYYWGQGTQVTVSS	high polyreactivity
QVQLVESRGCLVQAGGSHRLSCAASGSISDVNPMGWYRQARGNERELFAAMTSRRGGTNYADSVKGRFTISRDYAKNTVYLQMNSLNPEDTAVYYCAVYVSTKASKQGYGPGDYWGQGTQVTVSS	low polyreactivity
QVQLVESRGCLVQAGVSLRLSCSASGSIFKIYAMGWYRQAPGKERELVATITGIADSTYYADSVKGRFTISRDNAKNTVYLLMNSLKPDDNAVYYCAADNYVADYDYWGQGTQVTVSS	low polyreactivity
QVQLVESRGGIVQAGGSLRLSCAASGRIFSRYAMGWSRQAPGKEREMVAAISWSGGSTFYADSVKGRFTISRDNAKNTVYLQMNSLKPEDTAVYDCAAYPRFYGGKDGEYGYWGQGTQVTVSS	high polyreactivity
QVQLVESRGGIVQAGGSLRLSCAASGSIFTGNAMGWYRQAPGKERELVAAITSSAGSTYYADSVKGRFTISRDNAQYTVYLQMNSLKPEDTAVYYCAKDYYSKHFPNYDYWGQGTQVTVSS	low polyreactivity
QVQLVESRGGLDQAGGSLRLSCAASGSIFNAYVMGWYRQAPGKERELVAAISRSGGRTYYADSVKGRFTISRDNAKNTVYLQMNSLKPEDTAVYYCAASTIWHYDSWGQGTQVTVSS	high polyreactivity
QVQLVESRGGLLQAGGSLRLSCAASGFTFRQYTMGWYRQAPGKERELVAGITSSGTRTYYADSVKGRFTISRDNAKNTVYLQMNSLKPEDTAVYYCATYSRWDYGYWGQGTQVTVSS	high polyreactivity
QVQLVESRGGLVQAAGSLRLSCAASGGTFDINAMGWYRQAHGKEREFVAAISSYDDGTYYADSVKGRFTISRDNAKNTVYLQMNSLKPEDTAVYYCAAEGYYDYLYRHYYWGQGTLVTVSS	low polyreactivity
QVQLVESRGGLVQAGGSLRLICAASANNYRYAMGWYRQAPAKEREFVAAISRGGSTFYADSVKGRFTISRDNAKNTVYEQMNRLKPEDSAVFYCDKERYNVYYYSGQGTQVTVSS	high polyreactivity
QVQLVESRGGLVQAGGSLRLISAASGSSFLSYAMGWYRQAPGKERELVAAITGSGGNTYYADSVKGRFTISRDNAKNTVYLQMNSLIPEDTAVYYCAARAPTWAGTYGYWGQGTQVTVSS	high polyreactivity
QVQLVESRGGLVQAGGSLRLSCAACGLIFTRNAMGWYSAAPGKERELVAAISRSGGTTYYADSVKGRFTISRDNAKNTVYLQMNSLKPEDTAVYYCAAGSWWVIGGSVSYWYNYWGQGTQVTVSS	high polyreactivity

Sequence	polyreactivity (PSR sort gate)
QVQLVESRGGLVQAGGSLRLSCAASGFIFLGNAMGWYRQAPGKERELVASISRGGSTNYADSVKGRFTISRDNAKNTVYLQMNSLKPEDTAVYYCAADLSDKFGYWGQGTQVTVSS	low polyreactivity
QVQLVESRGGLVQAGGSLRLSCAASGFIFLPYAMGWYRQAPGKERELVATINSGDSTYADSVKGRFTISRDNAKNTVYLQMNSLKPEDTAVNYCNAYWLVVPVDLDYWGQGTQVTVSS	low polyreactivity
QVQLVESRGGLVQAGGSLRLSCAASGFSFAYYAMGWYTQAPGIERELVAGISAGYGSTYYADSVKGRFTISRDNAKNTVYLQMNSLKPEDTAVYYCAADTSSTSINGDIYDYEYWGQGTQVTVSS	low polyreactivity
QVQLVESRGGLVQAGGSLRLSCAASGFTFWFYAMGWYRQAPGKERELVAAISNAGGTNYADSVKGRFTISRDNAKYTVYLQMNSLKPEDTAVYYCAAAWPHWGDLGGTEWYLFYYWGQGTQVTVSS	low polyreactivity
QVQLVESRGGLVQAGGSLRLSCAASGITFGRNTMGWYRQAPGKERELVAAIDSGGNTYAESVKGRFTISRDNAKKTVYFQMNSLKPEDTAVYYCAVDGGEFSSYGYWGQGSQVTVSS	low polyreactivity
QVQLVESRGGLVQAGGSLRLSCAASGITFILYAMGCYRQAAWKERELVASITSGGSTDYADSVKERFTISGDNAKNTVYLQMNSLKPEDTAVYYCNAAARGSSFDYWGQGTQVTVSS	low polyreactivity
QVQLVESRGGLVQAGGSLRLSCAASGITFYVNDMGWYRQEPGTERELVAAISYRGGSTYYADSVKGRFTISRDNAKNTVYLQMNSLKPEDTAVYYCAADYNYWSPHRDDYWGQGTQVTVSS	low polyreactivity
QVQLVESRGGLVQAGGSLRLSCAASGRTFGRYAMGWYRQAPGKERELVAAINRGGSTKYADSVKGRFTISRDNAKNTVYLQMNSLKPEDTAVYYCAKDRHPALHYDYWGQGTQVTVSS	low polyreactivity
QVQLVESRGGLVQAGGSLRLSCAASGRTFVPYAMGWYIQAPGKERELVAAISYSGDSTYYADSVKGRFTISRDNAKNTVYLQLNSLKPEDTAVYYCAAPSYFRMGYWGQGTQVTVSS	low polyreactivity
QVQLVESRGGLVQAGGSLRLSCAASGSIFIYNAMGWYRQAPGKERELVAANSSSGGSTYYADSVKGRFTNSRDNEKNTVYLQMNSQNPEDTAVYYCAARTYYVRGLRGRPGMDYWGQGTQVTVSS	low polyreactivity
QVQLVESRGGLVQAGGSLRLSCAASGSIFSWYTMGWSRQAPGKERELVARITTSGGTPRYADSVKGRFTISRDNAKNTVYLQMNSLKPEDTAVYYCAADRSPYWRGYGRYNYWGQGTQVTVSS	high polyreactivity
QVQLVESRGGLVQAGGSLRLSCAASGSTFPGYAMGWYRQPPGKERELVAAINWRGASTYYADSVKGRFTMSRDNAKNTVYLQMNSLKPEDTAVYYCAGKYNHVTDEYEYWGQGTQVTVSS	high polyreactivity
QVQLVESRGGLVQAGGSLRLSCAASGSTFVRNAMGWYRQAPGKERELVAAISRSGGRTYYADSVMGRFTISRDNAKNTVYLQMNSLKPDDTAVYYCAKKRSKAISFDYWGQGTQVTVSS	high polyreactivity
QVQLVESRGGLVQAGGSLRLSCAASRFYTMGWYRQAPGKERELVAAISWSGGDTYYADSVKGRFTISRDNAKNTVYLQMNSLKPDDTAVYYCAKKTIGSYVHEPYYYWGQGTQVTVSS	low polyreactivity
QVQLVESRGGLVQAGGSLRLSCAASVSTFSDYSIGWYRQATGKERELVAGITGGGGTYYADSVKGRFTISRDNAKNTVYLQMNSLKPEDTAVYYCAAGRRHGFGYWGQGTQVTVSS	low polyreactivity
QVQLVESRGGLVQAGGSLRLSCPDSGYIFFTNSMGWYRQEPGKERELVAAISSAGRTKYADSVKGRFTISRDNAKNTVYLQMNSLKPEDTAVYYCNKAFYYLWGTGYDYWGQGTQVTVSS	low polyreactivity
QVQLVESRGGLVQAGGSLRLSFPDSGSTYVKNAMGWYRHAPGKERELVARISYSGGSTYADSVKGRFTISRDNAKNTVYLQMNSLKPEDSAVYYCNARTHNWWDGDGVYSQSLYDYWGQGTQVTVSS	low polyreactivity
QVQLVESRGGLVQAGGSLRLSSAASGRTFRSYVMGWYTPAPGKERQLVAAITRSGGSTYYADSVKGRFTISRDNAKNTVYLQMNSLKPEDTAVYYCATDRWYYYPDYYPYGEYDYWGQGTQVTVSS	low polyreactivity
QVQLVESRGGLVQAGGSLRLSYAASGYFFRYNSMGWYRQAPGTERELVAAMSRGGTTYYADSVTGRFTISRDNAMNTVYLQMNSLKPEDTEVYYCAAGRKVQSRRYGYWGQGTQVTVSS	high polyreactivity
QVQLVESRGGLVQAGGSLRLTCAASGSTFTHYAMGWYRQAPGKERELVAAISSGGGSTYYADSVKGRFTISRDNAKNTVYVQMNSLKPEDTAVYYCAVRSQFRAWRFYYWGQGTQVNVSS	high polyreactivity
